Measured values reported in patent US20170306033A1 (Amgen, published 2017).
Where a chain is given by its changes, count along the chain named.

T1: human PAC1 receptor (human, UniProt P41586 21-468)
T1 sequence: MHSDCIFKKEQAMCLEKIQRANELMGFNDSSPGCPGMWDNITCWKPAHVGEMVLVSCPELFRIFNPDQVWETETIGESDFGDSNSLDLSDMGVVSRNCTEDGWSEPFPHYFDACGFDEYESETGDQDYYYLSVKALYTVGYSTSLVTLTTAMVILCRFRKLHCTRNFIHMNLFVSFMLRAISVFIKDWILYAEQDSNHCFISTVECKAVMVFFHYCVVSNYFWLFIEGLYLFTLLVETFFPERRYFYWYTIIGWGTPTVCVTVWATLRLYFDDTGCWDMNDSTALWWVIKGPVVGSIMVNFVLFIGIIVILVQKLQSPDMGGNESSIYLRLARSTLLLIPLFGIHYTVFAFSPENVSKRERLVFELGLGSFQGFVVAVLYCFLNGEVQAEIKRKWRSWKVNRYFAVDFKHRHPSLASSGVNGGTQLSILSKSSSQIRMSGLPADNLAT

B1: iPS:392517 (bispecific antibody, human IgG1, kappa, lambda, N297G)
light: DIQLTQSPSFLSASVGDRVTITCRASQSIGRSLHWYQEKPGKAPKLLIKYASQSLSGVPSRFSGSGSGTEFTLTISSLQPEDFATYYCHQSSRLPFTFGPGTKVDIKRTVAAPSVFIFPPSDEQLKSGTASVVCLLNNFYPREAKVQWKVDNALQSGNSQESVTEQDSKDSTYSLESTLTLSKADYEKHKVYACEVTHQGLSSPVTKSFNRGEC
heavy: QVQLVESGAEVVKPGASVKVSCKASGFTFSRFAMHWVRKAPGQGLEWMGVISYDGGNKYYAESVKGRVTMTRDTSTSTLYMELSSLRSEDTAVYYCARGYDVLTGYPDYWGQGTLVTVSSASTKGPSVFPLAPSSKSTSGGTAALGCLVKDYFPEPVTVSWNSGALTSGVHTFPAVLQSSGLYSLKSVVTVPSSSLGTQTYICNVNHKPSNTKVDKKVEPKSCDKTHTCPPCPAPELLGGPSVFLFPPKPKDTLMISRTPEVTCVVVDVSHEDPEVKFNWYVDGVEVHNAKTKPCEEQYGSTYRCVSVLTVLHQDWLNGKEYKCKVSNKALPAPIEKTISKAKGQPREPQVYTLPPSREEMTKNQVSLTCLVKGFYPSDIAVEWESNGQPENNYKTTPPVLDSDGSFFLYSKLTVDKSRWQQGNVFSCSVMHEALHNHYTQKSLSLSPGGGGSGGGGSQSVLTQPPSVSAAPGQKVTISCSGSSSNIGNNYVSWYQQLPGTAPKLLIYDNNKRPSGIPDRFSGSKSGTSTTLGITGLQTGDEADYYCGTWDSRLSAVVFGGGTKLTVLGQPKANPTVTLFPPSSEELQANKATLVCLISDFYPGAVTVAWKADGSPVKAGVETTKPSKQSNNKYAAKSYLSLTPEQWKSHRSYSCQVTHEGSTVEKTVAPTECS
chain: QVQLVESGGGVVQPGRSLRLSCAASGFTFSSFGMHWVRQAPGKGLEWVAVISFDGSIKYSVDSVKGRFTISRDNSKNTLFLQMNSLRAEDTAVYYCARDRLNYYDSSGYYHYKYYGMAVWGQGTTVTVSSASTKGPSVFPLAPSSKSTSGGTAALGCLVKDYFPEPVTVSWNSGALTSGVHTFPAVLQSSGLYSLESVVTVPSSSLGTQTYICNVNHKPSNTKVDKKV
B2: iPS:392516 (bispecific antibody, human IgG1, kappa, lambda, N297G)
light: B1 light with E38Q
heavy: not shown
chain: B1 chain with Q39E
B3: iPS:392513 (bispecific antibody, human IgG1, kappa, lambda, N297G)
light: B1 light with E38Q
heavy: not shown
chain: QVQLVESGGGVVQPGRSLRLSCAASGFTFSSFGMHWVRQAPGKGLEWVAVISFDGSIKYSVDSVKGRFTISRDNSKNTLFLQMNSLRAEDTAVYYCARDRLNYYDSSGYYHYKYYGMAVWGQGTTVTVSSGQPKANPTVTLFPPSSEELQANKATLVCLISDFYPGAVTVAWKADGSPVKAGVETTKPSKQSNNKYAAESYLSLTPEQWKSHRSYSCQVTHEGSTVEKTVAPTECS
B4: iPS:392518 (bispecific antibody, human IgG1, kappa, lambda, N297G)
light: B1 light
heavy: not shown
chain: B1 chain with Q39E
B5: iPS:392515 (bispecific antibody, human IgG1, kappa, lambda, N297G)
light: B1 light with E38Q
heavy: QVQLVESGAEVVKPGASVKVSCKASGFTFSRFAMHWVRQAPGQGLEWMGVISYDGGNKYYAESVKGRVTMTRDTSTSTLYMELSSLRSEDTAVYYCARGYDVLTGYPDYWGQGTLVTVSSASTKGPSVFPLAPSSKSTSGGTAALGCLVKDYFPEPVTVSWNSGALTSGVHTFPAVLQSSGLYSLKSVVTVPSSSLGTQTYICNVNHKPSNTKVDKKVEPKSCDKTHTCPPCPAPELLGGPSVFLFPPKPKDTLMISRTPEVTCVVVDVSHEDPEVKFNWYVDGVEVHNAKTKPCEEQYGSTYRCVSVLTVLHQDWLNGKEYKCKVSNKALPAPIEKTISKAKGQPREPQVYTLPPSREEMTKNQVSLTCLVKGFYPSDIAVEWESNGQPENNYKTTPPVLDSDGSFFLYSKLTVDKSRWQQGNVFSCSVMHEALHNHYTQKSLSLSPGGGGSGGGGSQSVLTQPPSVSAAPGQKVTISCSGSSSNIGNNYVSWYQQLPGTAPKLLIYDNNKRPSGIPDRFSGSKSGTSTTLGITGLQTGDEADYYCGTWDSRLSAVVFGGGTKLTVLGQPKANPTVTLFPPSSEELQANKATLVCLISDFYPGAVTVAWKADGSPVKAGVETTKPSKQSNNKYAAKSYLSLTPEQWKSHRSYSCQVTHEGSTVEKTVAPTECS
chain: B1 chain
B6: iPS:392514 (bispecific antibody, human IgG1, kappa, lambda, N297G)
light: B1 light with E38Q
heavy: not shown
chain: B3 chain with Q39E
B7: iPS:392475 (bispecific antibody, human IgG1, kappa, lambda, N297G)
light: B1 light with E38Q
heavy: not shown
chain: B3 chain with D105E
B8: iPS:386736 (bispecific antibody, human IgG1, kappa, N297G)
light: B1 light with E38Q, E176S
heavy: not shown
B9: iPS:386746 (bispecific antibody, human IgG1, kappa, N297G)
light: B1 light with E38Q, E176S
heavy: not shown
B10: iPS:386748 (bispecific antibody, human IgG1, kappa, N297G)
light: B1 light with E38Q, E176S
heavy: not shown
B11: iPS:386752 (bispecific antibody, human IgG1, kappa, N297G)
light: B1 light with E38Q, E176S
heavy: not shown
B12: iPS:386758 (bispecific antibody, human IgG1, kappa, N297G)
light: B1 light with E38Q, E176S
heavy: not shown
B13: iPS:386738 (bispecific antibody, human IgG1, kappa, N297G)
light: B1 light with E38Q, E176S
heavy: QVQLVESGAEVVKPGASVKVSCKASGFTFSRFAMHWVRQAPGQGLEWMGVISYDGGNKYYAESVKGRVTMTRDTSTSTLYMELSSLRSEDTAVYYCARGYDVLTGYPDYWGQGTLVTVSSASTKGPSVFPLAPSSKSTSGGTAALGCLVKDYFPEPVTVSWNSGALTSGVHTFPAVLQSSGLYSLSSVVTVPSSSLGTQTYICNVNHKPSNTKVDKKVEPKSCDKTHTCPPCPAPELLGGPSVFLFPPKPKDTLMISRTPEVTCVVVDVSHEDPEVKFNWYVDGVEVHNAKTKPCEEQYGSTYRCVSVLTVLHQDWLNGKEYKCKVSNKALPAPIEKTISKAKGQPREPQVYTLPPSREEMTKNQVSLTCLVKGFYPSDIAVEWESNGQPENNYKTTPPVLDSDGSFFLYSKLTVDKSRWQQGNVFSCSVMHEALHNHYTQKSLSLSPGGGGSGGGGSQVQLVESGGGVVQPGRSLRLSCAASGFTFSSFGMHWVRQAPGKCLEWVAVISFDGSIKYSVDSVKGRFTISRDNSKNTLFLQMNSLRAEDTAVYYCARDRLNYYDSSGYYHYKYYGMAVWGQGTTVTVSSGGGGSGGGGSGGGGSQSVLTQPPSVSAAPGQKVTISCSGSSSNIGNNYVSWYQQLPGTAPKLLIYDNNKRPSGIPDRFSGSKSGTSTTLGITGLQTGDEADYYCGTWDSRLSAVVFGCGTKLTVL
B14: iPS:386762 (bispecific antibody, human IgG1, kappa, N297G)
light: B1 light with E38Q, E176S
heavy: not shown
B15: iPS:386742 (bispecific antibody, human IgG1, kappa, N297G)
light: B1 light with E38Q, E176S
heavy: not shown
B16: iPS:386750 (bispecific antibody, human IgG1, kappa, N297G)
light: B1 light with E38Q, E176S
heavy: not shown
B17: iPS:386744 (bispecific antibody, human IgG1, kappa, N297G)
light: B1 light with E38Q, E176S
heavy: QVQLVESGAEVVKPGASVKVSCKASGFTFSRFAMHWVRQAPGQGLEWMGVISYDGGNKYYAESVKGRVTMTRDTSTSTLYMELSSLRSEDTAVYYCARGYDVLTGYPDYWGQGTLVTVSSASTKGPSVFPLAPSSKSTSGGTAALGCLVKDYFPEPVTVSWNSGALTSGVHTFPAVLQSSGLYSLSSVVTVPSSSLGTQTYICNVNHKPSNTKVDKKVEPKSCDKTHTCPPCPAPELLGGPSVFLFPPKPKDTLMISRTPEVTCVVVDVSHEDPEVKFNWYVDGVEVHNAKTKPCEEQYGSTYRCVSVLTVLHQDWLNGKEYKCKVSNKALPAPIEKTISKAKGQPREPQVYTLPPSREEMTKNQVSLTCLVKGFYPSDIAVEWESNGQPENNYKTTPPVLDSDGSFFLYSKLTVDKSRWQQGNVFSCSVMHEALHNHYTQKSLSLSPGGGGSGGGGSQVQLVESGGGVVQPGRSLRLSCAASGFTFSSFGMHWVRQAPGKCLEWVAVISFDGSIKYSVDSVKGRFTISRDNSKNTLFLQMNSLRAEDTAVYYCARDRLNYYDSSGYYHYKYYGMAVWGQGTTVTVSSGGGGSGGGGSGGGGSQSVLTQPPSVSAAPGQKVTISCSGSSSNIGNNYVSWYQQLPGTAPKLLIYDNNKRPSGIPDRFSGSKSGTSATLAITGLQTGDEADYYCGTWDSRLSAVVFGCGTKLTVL
B18: iPS:386740 (bispecific antibody, human IgG1, kappa, N297G)
light: B1 light with E38Q, E176S
heavy: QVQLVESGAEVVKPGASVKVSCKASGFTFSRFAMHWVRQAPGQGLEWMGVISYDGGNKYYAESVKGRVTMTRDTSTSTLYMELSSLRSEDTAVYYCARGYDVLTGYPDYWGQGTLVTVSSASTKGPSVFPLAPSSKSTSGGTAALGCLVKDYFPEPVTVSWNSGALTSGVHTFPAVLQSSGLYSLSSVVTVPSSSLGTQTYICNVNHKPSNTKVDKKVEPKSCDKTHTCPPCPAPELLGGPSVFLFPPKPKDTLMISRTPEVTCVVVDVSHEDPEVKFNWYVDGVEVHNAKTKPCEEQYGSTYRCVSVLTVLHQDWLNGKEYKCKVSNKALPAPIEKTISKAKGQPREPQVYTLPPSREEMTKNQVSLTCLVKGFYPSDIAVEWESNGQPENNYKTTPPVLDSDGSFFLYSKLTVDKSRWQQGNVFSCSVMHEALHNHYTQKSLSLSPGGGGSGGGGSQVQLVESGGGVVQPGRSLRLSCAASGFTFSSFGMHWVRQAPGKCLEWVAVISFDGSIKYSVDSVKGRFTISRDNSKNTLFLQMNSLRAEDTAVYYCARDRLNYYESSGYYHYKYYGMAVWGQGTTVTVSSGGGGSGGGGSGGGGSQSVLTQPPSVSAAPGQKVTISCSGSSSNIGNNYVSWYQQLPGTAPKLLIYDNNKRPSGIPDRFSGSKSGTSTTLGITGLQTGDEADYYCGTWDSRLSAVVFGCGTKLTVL
B19: iPS:386760 (bispecific antibody, human IgG1, kappa, N297G)
light: B1 light with E38Q, E176S
heavy: not shown
B20: iPS:386754 (bispecific antibody, human IgG1, kappa, N297G)
light: B1 light with E38Q, E176S
heavy: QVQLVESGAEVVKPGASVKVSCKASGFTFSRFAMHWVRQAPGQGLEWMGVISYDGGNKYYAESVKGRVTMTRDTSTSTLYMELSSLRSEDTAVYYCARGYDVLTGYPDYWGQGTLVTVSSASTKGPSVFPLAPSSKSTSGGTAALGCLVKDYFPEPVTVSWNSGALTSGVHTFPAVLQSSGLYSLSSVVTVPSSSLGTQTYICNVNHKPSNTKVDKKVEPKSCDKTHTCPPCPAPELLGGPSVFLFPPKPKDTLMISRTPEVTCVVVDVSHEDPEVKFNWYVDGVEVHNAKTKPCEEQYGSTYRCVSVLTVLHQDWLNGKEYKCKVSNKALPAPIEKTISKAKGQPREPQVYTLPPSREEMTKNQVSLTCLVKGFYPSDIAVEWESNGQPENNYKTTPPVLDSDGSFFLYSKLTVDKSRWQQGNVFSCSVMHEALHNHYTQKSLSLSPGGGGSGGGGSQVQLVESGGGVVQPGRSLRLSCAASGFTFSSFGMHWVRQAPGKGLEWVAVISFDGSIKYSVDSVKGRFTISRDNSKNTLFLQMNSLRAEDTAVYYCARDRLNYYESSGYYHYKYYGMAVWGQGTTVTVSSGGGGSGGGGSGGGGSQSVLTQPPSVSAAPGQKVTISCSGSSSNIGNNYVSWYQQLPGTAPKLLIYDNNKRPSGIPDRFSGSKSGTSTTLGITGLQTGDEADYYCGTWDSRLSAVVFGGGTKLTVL
B21: iPS:386764 (bispecific antibody, human IgG1, kappa, N297G)
light: B1 light with E38Q, E176S
heavy: not shown
B22: iPS:386756 (bispecific antibody, human IgG1, kappa, N297G)
light: B1 light with E38Q, E176S
heavy: not shown
B23: iPS:386711 (bispecific antibody, human IgG1, lambda, N297G)
light: QSVLTQPPSVSAAPGQKVTISCSGSSSNIGNNYVSWYQQLPGTAPKLLIYDNNKRPSGIPDRFSGSKSGTSATLAITGLQTGDEADYYCGTWDSRLSAVVFGGGTKLTVLGQPKANPTVTLFPPSSEELQANKATLVCLISDFYPGAVTVAWKADGSPVKAGVETTKPSKQSNNKYAASSYLSLTPEQWKSHRSYSCQVTHEGSTVEKTVAPTECS
heavy: not shown
B24: iPS:386727 (bispecific antibody, human IgG1, lambda, N297G)
light: B23 light with A75G
heavy: not shown
B25: iPS:386723 (bispecific antibody, human IgG1, lambda, N297G)
light: B23 light with A75G
heavy: not shown
B26: iPS:386729 (bispecific antibody, human IgG1, lambda, N297G)
light: B23 light
heavy: not shown
B27: iPS:386719 (bispecific antibody, human IgG1, lambda, N297G)
light: B23 light with A75G
heavy: not shown
B28: iPS:386725 (bispecific antibody, human IgG1, lambda, N297G)
light: B23 light with A72T, A75G
heavy: not shown
B29: iPS:386731 (bispecific antibody, human IgG1, lambda, N297G)
light: B23 light with A72T, A75G
heavy: not shown
B30: iPS:386715 (bispecific antibody, human IgG1, lambda, N297G)
light: B23 light with A72T, A75G
heavy: not shown
B31: iPS:386713 (bispecific antibody, human IgG1, lambda, N297G)
light: B23 light with A75G
heavy: not shown
B32: iPS:386733 (bispecific antibody, human IgG1, lambda, N297G)
light: B23 light
heavy: not shown
B33: iPS:386717 (bispecific antibody, human IgG1, lambda, N297G)
light: B23 light with A72T, A75G
heavy: not shown
B34: iPS:386721 (bispecific antibody, human IgG1, lambda, N297G)
light: B23 light
heavy: not shown

Biological target: T2, human CGRP receptor (human, UniProt Q16602 23-461; O60894 27-148)
Experiment: cell-based or functional assay

T2 sequence (Q16602 23-461 limits assumed, chain 1 of 2): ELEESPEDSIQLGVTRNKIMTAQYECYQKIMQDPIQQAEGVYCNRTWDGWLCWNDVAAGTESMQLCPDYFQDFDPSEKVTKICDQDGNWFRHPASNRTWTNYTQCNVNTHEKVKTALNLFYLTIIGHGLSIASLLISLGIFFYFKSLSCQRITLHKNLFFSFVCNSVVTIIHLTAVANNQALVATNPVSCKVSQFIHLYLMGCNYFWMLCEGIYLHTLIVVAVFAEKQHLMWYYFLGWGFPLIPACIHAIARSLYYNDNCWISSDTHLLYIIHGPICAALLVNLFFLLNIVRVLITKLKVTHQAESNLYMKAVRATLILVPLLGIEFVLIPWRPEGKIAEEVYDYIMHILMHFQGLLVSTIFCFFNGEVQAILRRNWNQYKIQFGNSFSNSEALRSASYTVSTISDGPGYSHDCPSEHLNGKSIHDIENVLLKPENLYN
T2 sequence (O60894 27-148 limits assumed, chain 2 of 2): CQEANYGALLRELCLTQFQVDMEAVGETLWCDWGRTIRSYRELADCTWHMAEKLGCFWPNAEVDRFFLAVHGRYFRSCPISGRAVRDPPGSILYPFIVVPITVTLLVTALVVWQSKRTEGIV

Row | Human CGRP Receptor IC50 (nM), lot #1 | Human CGRP Receptor IC50 (nM), lot #2 | Human CGRP Receptor IC50 | Binder
1 | 10.9 nM | 11.5 nM |  | B1
2 |  |  | 27.9 nM | B2
3 |  |  | 60.2 nM | B3
4 |  |  | 17.8 nM | B4
5 |  |  | 12.9 nM | B5
6 |  |  | 54 nM | B6
7 |  |  | 20.4 nM | B7

Biological target: T1, human PAC1 receptor
Experiment: cell-based or functional assay

Row | Human PAC1 Receptor IC50 (nM), lot #1 | Human PAC1 Receptor IC50 (nM), lot #2 | Human PAC1 Receptor IC50 | Binder
8 | 2.48 nM | 7.75 nM |  | B1
9 |  |  | 9.3 nM | B2
10 |  |  | 2.7 nM | B3
11 |  |  | 3.4 nM | B4
12 |  |  | 2.66 nM | B5
13 |  |  | 4.69 nM | B6
14 |  |  | 4.78 nM | B7

Biological target: T2, human CGRP receptor
Experiment: cell-based or functional assay
Remark: another data set of the same source

Row | Human CGRP Receptor IC50 | Binder
15 | 0.9 nM | B8
16 | 0.79 nM | B9
17 | 0.63 nM | B10
18 | 0.62 nM | B11
19 | 2.32 nM | B12
20 | 0.74 nM | B13
21 | 2.8 nM | B14
22 | 0.61 nM | B15
23 | 0.58 nM | B16
24 | 0.61 nM | B17
25 | 0.56 nM | B18
26 | 2.11 nM | B19
27 | 0.54 nM | B20
28 | 2.61 nM | B21
29 | 1.88 nM | B22
30 | 0.53 nM | B23
31 | 0.72 nM | B24
32 | 0.27 nM | B25
33 | 0.47 nM | B26
34 | 0.41 nM | B27
35 | 0.42 nM | B28
36 | 0.4 nM | B29
37 | 0.43 nM | B30
38 | 0.37 nM | B31
39 | 0.34 nM | B32
40 | 0.33 nM | B33
41 | 0.22 nM | B34

Biological target: T1, human PAC1 receptor
Experiment: cell-based or functional assay
Remark: another data set of the same source

Row | Human PAC1 Receptor IC50 | Binder
42 | 5.43 nM | B8
43 | 3.28 nM | B9
44 | 2.85 nM | B10
45 | 6.08 nM | B11
46 | 4.11 nM | B12
47 | 5.09 nM | B13
48 | 3.55 nM | B14
49 | 6.39 nM | B15
50 | 4.54 nM | B16
51 | 3.63 nM | B17
52 | 4.4 nM | B18
53 | 4.67 nM | B19
54 | 5.74 nM | B20
55 | 11.9 nM | B21
56 | 7.29 nM | B22
57 | 1210 nM | B23
58 | 371 nM | B24
59 | 248 nM | B25
60 | 565 nM | B26
61 | 940 nM | B27
62 | 549 nM | B28
63 | 347 nM | B29
64 | 689 nM | B30
65 | 603 nM | B31
66 | 74.3 nM | B32
67 | 580 nM | B33
68 | 197 nM | B34
